Assay: yeast display, Sf9 membrane polyspecificity reagent, FACS + sequencing; frameworks hold sequencing errors
Outline: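 A nanobody's polyreactivity label depends on the gate it was sorted from. Yeast display cells were stained with 10% biotinylated, detergent-solubilized Sf9 membrane reagent for 1 hour at 4 °C, enriched on streptavidin microbeads and sorted by FACS. The low and high (top ~1%) gates were set on anti-HA fluorescence for expression and streptavidin fluorescence for reagent binding.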

Sequence | polyreactivity (PSR sort gate)
QVQLVESGGGLVQAGGSLRLSCAASGSIFGSYAMGWYRQAPGKERELVAAISGSGGRTYYADSVKGRFTISRDNAKNTVYFQMNSLKPEVTAVYYCAAAYPRVTYKYGYYWGLGTQVTVSS | high polyreactivity
QVQLVESGGGLVQAGGGLRLSCAASGTFKRNAMGWYRQAPGKERELVATITRTGSTTYADSVKGRFTISRDNAKNTVYLQMNSLKPEDTAVYYCAAGYPPEDPEDYWGQGTQVTVSS | low polyreactivity
QVQLVESGGGLVQAGGSLRLSCAASGSIFVSYAMGWYRQAPGKERELVAAITRGGSTNYADSVKGRFTISRDNAKNTVYLQMNSLKPEDTAVYYCAAAYRRGGPPLDYWGQGTQVTVSS | low polyreactivity
QVQLVESGGGLLQAGGSLRLSCAASGITLSYYVMGWYRQAPGKERELVAAINQSGSRTYYADSVKGRFTISRDNPKNSVYLQMNSLKPEDTAVYYCAGVFSYQPTSGYGYWGQGTQVTVSS | high polyreactivity
QVQLVESGGGIVQAGGSLRLSCAASGLTFPPNAMGWYRPAPGKEREFVAVISSGGGSTYYADSVKGRFTISRDNAKNTVYSQMNSLKPEDTAVYYCATEYQDGDTEYYYWGQGTQVTVSS | low polyreactivity
QVQLVESGGGLDQAGGSLRLSCAASGITFPYYAMGRYIQAPGKERELVADITSGGSTNYADSVKGRFTISRDNAKNTGYLQMNRLKPEDTAVYYCAADWYVIYDYWGQGTQVSVSS | low polyreactivity
QVQLQDSGSGLVQAGGSLRLSCAASGAIFPAYLMVSYRQAPGKERELVAGISYGSITYCADSVKGRFNISRDNAKNTVYLQMNSLKPEDTAVYYCAVWRPGGDEYYYWGQGTQVTVSS | low polyreactivity
QVQLVESGGGLVQAGGSLRLSCAASGRTFHRYVMGWYRQAPGKERELVAAISKSGGRTYYADSVKGRFTISRDNAKNTVYLQMNSLKPEDTAVYYYNARTAAGALYDYWGQGTQVTVSS | high polyreactivity
QVQLVESGGGLVQAGGSLRLSCAASGNIFGRYAMGWYRQAPGKERELVAAINWSGGSTNYADSVKGRFTISRDNAKNTVYLQMNSLKPEDTAVYYCAADYYYSLISNQYKYGQRNFDYWGQGTQVTVSS | low polyreactivity
QVQLVESGGVLVQAGGSLRLSCAASGSIFRGYAMGCYRQAPGKERELVAAINTSGGRTYYADSVKGRFTISRDNAKNTVYLQMIRLKPDDTAVYYCATEYYQAKREDYWGQGTQVTVSS | high polyreactivity
QVHLVESGGGLVQAGGTLRLRCAASGSTFVYNDMGWYRQAPGKERELVAAISTSGGSTYYADSVKGRFTISRDNAKNTVYLQMNSLKPEDTAVYFCAVDSYYFGYWAIQWEGDYWGQGTQVTVSS | low polyreactivity
QVQLVESGGGLVQEGGSLRLRCAASGGIFASNAMRWYRQAPGKERELLATITRGGSTNYADSVKGRFTISRDNAKNTVYLQMNSLKPEDTAVYYCAARFYSRAFWPAYYYWGQGTQVTVSS | high polyreactivity
QVQLVESGGGLVQAGGSLRLSCAASGRIFVSNAMGWYRLAPGKERELVATISRSGGNTYYADSVKGRFTISRDNAKNTVYLQMNSLKPEYTAVYYSNSVSRRSYVKYDYWRQGTQVTVSS | high polyreactivity
QVQLVESGGGLVQAGGSLRLSCAATGSIFRWNTMGWYRPAPGKERELVAVITWSGDSTYYADSVKGRFTISRDNAKNTVYLQMNSLKPEDTAVYYCAVDVVTSYYELTGSFNYWGQGTQVTVSS | low polyreactivity
QVQLVESGGGLVQAGGSLRLSCAASGRIFPGNAMGWYRQAPGKESELVAAISKSGGSTYYADSVKGRFTISRDNAKNTVYLQMNSLKPEDTAVYYCAKLYYPVSDQYDYYYWGQGTQVTVSS | low polyreactivity
QVQLVESGGGLVQAGGSLRLSCAASGGTFNTYAMGWYRQAPGKERELVAAITSSGGSTFYADSVKGRFTISRDNAKNTVYLQMNSLKPEDTAVYYCAAKSYWTIVYRHPGYYYWGQGTQVTVSS | low polyreactivity

Source: the nanobody polyreactivity screen of Harvey et al. (2022)
